{
  "source": "the supplement of paper PMC10567573",
  "parents": {"B1": {"name": "PTPN9 (parent)", "chain": "TQHLPRECLPENLGGYVKIDLATW"}},
  "data": [
    {"variants_of": "B1", "assay": "protein stability index of a GFP-peptide fusion (GPS, HEK-293T) (PSI 1-6); higher = more stable", "settings": "c terminus: a fixed tail appended", "values": [
      {"variant": "TMHLPRECLPENLGGYVKIDLATW", "protein stability index": 1.47},
      {"variant": "TWHLPRECLPENLGGYVKIDLATW", "protein stability index": 1.49},
      {"variant": "TYHLPRECLPENLGGYVKIDLATW", "protein stability index": 2.48},
      {"variant": "TCHLPRECLPENLGGYVKIDLATW", "protein stability index": 2.11},
      {"variant": "TDHLPRECLPENLGGYVKIDLATW", "protein stability index": 2.02},
      {"variant": "TFHLPRECLPENLGGYVKIDLATW", "protein stability index": 1.31},
      {"variant": "TRHLPRECLPENLGGYVKIDLATW", "protein stability index": 1.76},
      {"variant": "TLHLPRECLPENLGGYVKIDLATW", "protein stability index": 2.17},
      {"variant": "TEHLPRECLPENLGGYVKIDLATW", "protein stability index": 2.08},
      {"variant": "TVHLPRECLPENLGGYVKIDLATW", "protein stability index": 1.66},
      {"variant": "TSHLPRECLPENLGGYVKIDLATW", "protein stability index": 1.73},
      {"variant": "TGHLPRECLPENLGGYVKIDLATW", "protein stability index": 2.5},
      {"variant": "THHLPRECLPENLGGYVKIDLATW", "protein stability index": 1.52},
      {"variant": "TIHLPRECLPENLGGYVKIDLATW", "protein stability index": 1.96},
      {"variant": "TAHLPRECLPENLGGYVKIDLATW", "protein stability index": 1.84},
      {"variant": "TTHLPRECLPENLGGYVKIDLATW", "protein stability index": 1.99},
      {"variant": "TNHLPRECLPENLGGYVKIDLATW", "protein stability index": 2.05},
      {"variant": "TPHLPRECLPENLGGYVKIDLATW", "protein stability index": 2.02},
      {"variant": "TQHLPREHLPENLGGYVKIDLATW", "protein stability index": 2.56},
      {"variant": "TQHLPREMLPENLGGYVKIDLATW", "protein stability index": 1.81},
      {"variant": "TQHLPRENLPENLGGYVKIDLATW", "protein stability index": 2.15},
      {"variant": "TQHLPREVLPENLGGYVKIDLATW", "protein stability index": 2.02},
      {"variant": "TQHLPRERLPENLGGYVKIDLATW", "protein stability index": 1.69},
      {"variant": "TQHLPRETLPENLGGYVKIDLATW", "protein stability index": 2.19},
      {"variant": "TQHLPREFLPENLGGYVKIDLATW", "protein stability index": 2.3},
      {"variant": "TQHLPREALPENLGGYVKIDLATW", "protein stability index": 2.16},
      {"variant": "TQHLPREWLPENLGGYVKIDLATW", "protein stability index": 1.72},
      {"variant": "TQHLPREGLPENLGGYVKIDLATW", "protein stability index": 1.78},
      {"variant": "TQHLPREQLPENLGGYVKIDLATW", "protein stability index": 2.29},
      {"variant": "TQHLPRESLPENLGGYVKIDLATW", "protein stability index": 2.04},
      {"variant": "TQHLPREDLPENLGGYVKIDLATW", "protein stability index": 2.48},
      {"variant": "TQHLPRELLPENLGGYVKIDLATW", "protein stability index": 1.8},
      {"variant": "TQHLPREELPENLGGYVKIDLATW", "protein stability index": 2.24},
      {"variant": "TQHLPREKLPENLGGYVKIDLATW", "protein stability index": 1.93},
      {"variant": "TQHLPREYLPENLGGYVKIDLATW", "protein stability index": 2.11},
      {"variant": "TQHLPREPLPENLGGYVKIDLATW", "protein stability index": 2.16},
      {"variant": "TQHLPREILPENLGGYVKIDLATW", "protein stability index": 1.7},
      {"variant": "TQHLPRCCLPENLGGYVKIDLATW", "protein stability index": 2.49},
      {"variant": "TQHLPRFCLPENLGGYVKIDLATW", "protein stability index": 1.74},
      {"variant": "TQHLPRDCLPENLGGYVKIDLATW", "protein stability index": 2.2},
      {"variant": "TQHLPRLCLPENLGGYVKIDLATW", "protein stability index": 2.25},
      {"variant": "TQHLPRACLPENLGGYVKIDLATW", "protein stability index": 1.82},
      {"variant": "TQHLPRRCLPENLGGYVKIDLATW", "protein stability index": 2.5},
      {"variant": "TQHLPRNCLPENLGGYVKIDLATW", "protein stability index": 1.86},
      {"variant": "TQHLPRICLPENLGGYVKIDLATW", "protein stability index": 2.52},
      {"variant": "TQHLPRQCLPENLGGYVKIDLATW", "protein stability index": 1.63},
      {"variant": "TQHLPRHCLPENLGGYVKIDLATW", "protein stability index": 1.85},
      {"variant": "TQHLPRTCLPENLGGYVKIDLATW", "protein stability index": 1.42},
      {"variant": "TQHLPRKCLPENLGGYVKIDLATW", "protein stability index": 1.52},
      {"variant": "TQHLPRVCLPENLGGYVKIDLATW", "protein stability index": 2.22},
      {"variant": "TQHLPRMCLPENLGGYVKIDLATW", "protein stability index": 2.33},
      {"variant": "TQHLPRGCLPENLGGYVKIDLATW", "protein stability index": 1.62},
      {"variant": "TQHLPRSCLPENLGGYVKIDLATW", "protein stability index": 1.94},
      {"variant": "TQHLPRPCLPENLGGYVKIDLATW", "protein stability index": 2.52},
      {"variant": "TQHLPRWCLPENLGGYVKIDLATW", "protein stability index": 1.93},
      {"variant": "TQHLPRYCLPENLGGYVKIDLATW", "protein stability index": 2.19},
      {"variant": "TQHLRRECLPENLGGYVKIDLATW", "protein stability index": 2.45},
      {"variant": "TQHLYRECLPENLGGYVKIDLATW", "protein stability index": 1.64},
      {"variant": "TQHLFRECLPENLGGYVKIDLATW", "protein stability index": 1.82},
      {"variant": "TQHLQRECLPENLGGYVKIDLATW", "protein stability index": 1.66},
      {"variant": "TQHLCRECLPENLGGYVKIDLATW", "protein stability index": 1.77},
      {"variant": "TQHLTRECLPENLGGYVKIDLATW", "protein stability index": 1.92},
      {"variant": "TQHLGRECLPENLGGYVKIDLATW", "protein stability index": 1.73},
      {"variant": "TQHLLRECLPENLGGYVKIDLATW", "protein stability index": 2.83},
      {"variant": "TQHLDRECLPENLGGYVKIDLATW", "protein stability index": 2.26},
      {"variant": "TQHLVRECLPENLGGYVKIDLATW", "protein stability index": 1.57},
      {"variant": "TQHLMRECLPENLGGYVKIDLATW", "protein stability index": 1.53},
      {"variant": "TQHLSRECLPENLGGYVKIDLATW", "protein stability index": 1.89},
      {"variant": "TQHLIRECLPENLGGYVKIDLATW", "protein stability index": 2.88},
      {"variant": "TQHLWRECLPENLGGYVKIDLATW", "protein stability index": 2.33},
      {"variant": "TQHLERECLPENLGGYVKIDLATW", "protein stability index": 2.6},
      {"variant": "TQHLNRECLPENLGGYVKIDLATW", "protein stability index": 2.04},
      {"variant": "TQHLHRECLPENLGGYVKIDLATW", "protein stability index": 1.95},
      {"variant": "TQHLKRECLPENLGGYVKIDLATW", "protein stability index": 2.68},
      {"variant": "TQHLARECLPENLGGYVKIDLATW", "protein stability index": 2.18},
      {"variant": "TQMLPRECLPENLGGYVKIDLATW", "protein stability index": 1.92},
      {"variant": "TQQLPRECLPENLGGYVKIDLATW", "protein stability index": 1.91},
      {"variant": "TQILPRECLPENLGGYVKIDLATW", "protein stability index": 1.79},
      {"variant": "TQDLPRECLPENLGGYVKIDLATW", "protein stability index": 2.86},
      {"variant": "TQKLPRECLPENLGGYVKIDLATW", "protein stability index": 2.03},
      {"variant": "TQSLPRECLPENLGGYVKIDLATW", "protein stability index": 2.15},
      {"variant": "TQLLPRECLPENLGGYVKIDLATW", "protein stability index": 1.92},
      {"variant": "TQFLPRECLPENLGGYVKIDLATW", "protein stability index": 2.35},
      {"variant": "TQPLPRECLPENLGGYVKIDLATW", "protein stability index": 1.77},
      {"variant": "TQELPRECLPENLGGYVKIDLATW", "protein stability index": 2.28},
      {"variant": "TQTLPRECLPENLGGYVKIDLATW", "protein stability index": 2.45},
      {"variant": "TQGLPRECLPENLGGYVKIDLATW", "protein stability index": 2.1},
      {"variant": "TQVLPRECLPENLGGYVKIDLATW", "protein stability index": 1.64},
      {"variant": "TQRLPRECLPENLGGYVKIDLATW", "protein stability index": 1.56},
      {"variant": "TQWLPRECLPENLGGYVKIDLATW", "protein stability index": 1.65},
      {"variant": "TQCLPRECLPENLGGYVKIDLATW", "protein stability index": 1.91},
      {"variant": "TQALPRECLPENLGGYVKIDLATW", "protein stability index": 1.84},
      {"variant": "TQNLPRECLPENLGGYVKIDLATW", "protein stability index": 2.03},
      {"variant": "TQYLPRECLPENLGGYVKIDLATW", "protein stability index": 1.66}
    ]}
  ]
}
